Reference: patent US20260242478A1 (published 2026)
Where no end group is shown, it is not given here.

B1: Phage-531 (peptide)
peptide: YCDGHSPMYILKCL
modifications: cysteine pairing not given here; also: displayed on phage as fusion to pIII, linker, pIII sequence and order not given here
notes: Clonal phage supernatant; not shown: pIII filament protein of the bacteriophage to which the peptide is fused
B2: Phage-534 (peptide)
peptide: YCDGHSPLYMWKCL
modifications: cysteine pairing not given here; also: displayed on phage as fusion to pIII, linker, pIII sequence and order not given here
notes: as for B1
B3: Phage-535 (peptide)
peptide: YCDGHLPMYMQKCL
modifications: cysteine pairing not given here; also: displayed on phage as fusion to pIII, linker, pIII sequence and order not given here
notes: as for B1
B4: Phage-537 (peptide)
peptide: YCEGHSWANLGKCL
modifications: cysteine pairing not given here; also: displayed on phage as fusion to pIII, linker, pIII sequence and order not given here
notes: as for B1
B5: Phage-538 (peptide)
peptide: YCDGHLPEYREKCF
modifications: cysteine pairing not given here; also: displayed on phage as fusion to pIII, linker, pIII sequence and order not given here
notes: as for B1
B6: Phage-539 (peptide)
peptide: YCEGHLPEYMLKCL
modifications: cysteine pairing not given here; also: displayed on phage as fusion to pIII, linker, pIII sequence and order not given here
notes: as for B1

Columns and labels:
[1] = target: T1, Anti-CD28 Fab (SEQ ID NOs: 696, 697); assay: phage binding ELISA; Fab wells pre-incubated with CD28 antigen as competitor, anti-M13 HRP
T1 construct: Biotinylated and captured on neutravidin coated plates in the phage ELISA
T1 sequence (VH, as listed by the source, chain 1 of 2): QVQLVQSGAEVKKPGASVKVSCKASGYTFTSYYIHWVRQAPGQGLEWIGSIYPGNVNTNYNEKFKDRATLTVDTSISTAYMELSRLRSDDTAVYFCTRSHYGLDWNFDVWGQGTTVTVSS
T1 sequence (VL, as listed by the source, chain 2 of 2): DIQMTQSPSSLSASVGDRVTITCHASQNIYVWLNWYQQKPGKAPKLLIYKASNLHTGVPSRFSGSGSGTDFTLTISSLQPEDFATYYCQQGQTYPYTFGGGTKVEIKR
Method: (§1) After panning, phage infected bacteria were plated out and colonies picked into 96 well blocks. Clonal phage was then amplified and separated from bacterial cells via centrifugation.
(§2) Clonal phage were harvested as crude supematants and screened via standard ELISAs. […] Prior to the addition of clonal phage, wells were incubated with blocking buffer and CD28 antigen or blocking buffer alone. Without washing or aspirating, clonal phage supematants were then added to the wells and incubated for a short time. Wells were then washed followed by detection of bound phage using a horse radish conjugated anti-M13 antibody. Clonal phage of interest were then sent for sequence analysis.

[2] = target: T1, Anti-CD28 Fab (SEQ ID NOs: 696, 697); assay: phage binding ELISA; biotinylated Fab on neutravidin plate, clonal phage supernatant, anti-M13 HRP;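 note: clones picked after panning, added to wells pre-incubated with CD28 antigen or with blocking buffer only, no wash before phage addition, bound phage read after washing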
Method: as §1, §2

[3] = target: T2, Anti-CD28 Fab (SEQ ID NOs: 696, 697); assay: phage ELISA; Fab-coated wells pre-incubated with CD28 antigen as competitor, anti-M13-HRP detection
T2 construct: In the phage ELISA the Fab was biotinylated and captured on neutravidin coated plates
T2 sequence (VH, as listed by the source, chain 1 of 2): as the sequence (VH, as listed by the source, chain 1 of 2) above
T2 sequence (VL, as listed by the source, chain 2 of 2): as the sequence (VL, as listed by the source, chain 2 of 2) above
Method: as §1, §2

[4] = target: T2, Anti-CD28 Fab (SEQ ID NOs: 696, 697); assay: phage ELISA; biotinylated anti-CD28 Fab on neutravidin plates, bound phage detected with anti-M13-HRP
Method: as §1, §2

Binder	Anti-CD28 Fab signal in the presence of CD28 [1]	Anti-CD28 Fab (SEQ ID NOs: 696, 697) signal [2]	Phage binding ELISA, Anti-CD28 Fab signal in the presence of CD28 [3]	Phage binding ELISA, Anti-CD28 Fab signal [4]
B1	0.08	2.34		
B2	0.08	2.34		
B3	0.11	2.33		
B4	0.08	2.32		
B5	0.07	2.32		
B6	0.09	2.32		
YCEGHLSQYMQKCL (Tested as clonal phage supernatant) [Phage-709]			0.09	2
YCDGHSPIYMSKCL (Tested as clonal phage supernatant) [Phage-710]			0.09	2
YCDGHSDQYMWKCL (Tested as clonal phage supernatant) [Phage-711]			0.11	2
YCDGHLPQYMSKCL (Tested as clonal phage supernatant) [Phage-712]			0.1	2
YCDGHMPQYMSKCL (Tested as clonal phage supernatant) [Phage-716]			0.08	1.98
YCEGHAAEYMMKCL (Tested as clonal phage supernatant) [Phage-713]			0.07	1.99
YCAGHLPMYMHKCL (Tested as clonal phage supernatant) [Phage-714]			0.18	1.99
YCDGHSQEYIAKCL (Tested as clonal phage supernatant) [Phage-715]			0.07	1.99
YCVGHLPQYMEKCL (Tested as clonal phage supernatant) [Phage-717]			0.08	1.98
